Usually EC50 (read off the curve) stands for the concentration needed to bring the measured effect to its halfway point. Usually Kd stands for the constant that tells how readily two partners part at equilibrium.

In assay [1] the target is T1, endogenous sFlt-1 in pooled serum of pre-eclampsia patients (human, UniProt P17948-2 27-687, limits assumed).
T1 construct: also called sVEGFR1; soluble Flt-1 receptor
Briefly: 0.1 ml column, 1 mg antibody/ml beads, pooled serum of pre-eclampsia patients.

The target of a further assay is T2, purified human Bmp9 (human, UniProt Q9UK05 320-429, limits assumed).
T2 construct: also called Bone Morphogenetic Protein 9
T2 sequence (looked up): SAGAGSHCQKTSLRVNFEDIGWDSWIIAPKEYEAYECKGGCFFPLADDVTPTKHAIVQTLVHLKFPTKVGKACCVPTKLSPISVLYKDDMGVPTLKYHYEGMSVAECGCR
Briefly: sandwich ELISA: cENG10 coated at 4 ug/mL, serial dilutions of Bmp9 alone, bound Bmp9 detected with biotinylated anti-Bmp9 antibody and an HRP conjugate. Here is the method:
(§1) For the ELISA experiment shown, cENG10 antibody was coated onto microplates and incubated with the analyte (a preformed Bmp9/sEng complex, Bmp9 alone, or sEng alone). Bound Bmp9 was detected using a biotinylated anti-Bmp9 antibody and a secondary, HRP-conjugated antibody, allowing for colorimetric detection of cENG10 binding to the Bmp9/sEng complex.
(§2) To test whether or not antibody cENG10 blocks binding of sEng and its ligands was assessed using a sandwich ELISA. To that end, purified human Bmp9 and sEng were mixed at equimolar ratio in PBS (final total concentration 1 μM), incubated for 30 min and serially diluted (in 1% BSA) to 0.02 to 20 nM. Control solutions containing only Bmp9 or sEng were also prepared. Antibody cENG10 (4 μg/mL) was coated onto microplate wells. After a washing step, the wells were blocked with 1% BSA. Serial dilutions of either the preformed Bmp9-sEng complex, sEng alone, or Bmp9 alone were added and the plates incubated for 90 min. After another wash step, bound Bmp9 was detected using a biotinylated anti-Bmp9 antibody and a secondary, HRP-conjugated antibody, allowing for colorimetric detection of cENG10 binding to the Bmp9/sEng complex.
(In general: An ELISA detects its analyte on a solid surface through an enzyme-linked reagent.)

In assay [2] the target is T3, soluble Endoglin (sEng), recombinant, as spiked or purified protein (human, UniProt P17813 26-586, limits assumed).
T3 construct: sEng applied to columns (80 or 60 ng/ml), used in SEC and coated in ELISA; construct not specified there; also called spiked sEng
T3 sequence (looked up): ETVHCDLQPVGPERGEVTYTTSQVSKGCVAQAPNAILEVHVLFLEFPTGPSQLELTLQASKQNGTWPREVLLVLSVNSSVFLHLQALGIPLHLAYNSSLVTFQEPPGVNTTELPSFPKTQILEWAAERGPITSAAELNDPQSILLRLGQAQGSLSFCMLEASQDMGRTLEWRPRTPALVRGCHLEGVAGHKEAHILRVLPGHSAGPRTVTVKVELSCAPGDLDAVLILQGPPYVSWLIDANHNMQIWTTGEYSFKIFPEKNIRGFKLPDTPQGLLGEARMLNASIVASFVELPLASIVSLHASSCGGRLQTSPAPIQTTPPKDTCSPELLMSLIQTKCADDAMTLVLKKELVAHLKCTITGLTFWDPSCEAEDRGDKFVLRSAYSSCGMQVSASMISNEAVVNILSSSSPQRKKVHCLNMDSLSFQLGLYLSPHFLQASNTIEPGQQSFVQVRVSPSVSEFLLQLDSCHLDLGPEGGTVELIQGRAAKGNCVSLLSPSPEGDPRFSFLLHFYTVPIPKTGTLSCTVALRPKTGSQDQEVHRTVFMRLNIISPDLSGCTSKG
Briefly: sandwich ELISA: cENG10 coated at 4 ug/mL, serial dilutions of preformed equimolar Bmp9/sEng complex, bound Bmp9 detected with biotinylated anti-Bmp9 antibody and an HRP conjugate. How it is done:
as §1, §2

The target in assay [3] is T4, recombinant human (rh) Endoglin ectodomain (residues 1-586) containing C-terminal 6xHis tag (human, UniProt P17813 26-586).
T4 construct: range 1-586; Purified from HEK-293 cells; the stated range 1-586 includes the signal peptide; also called purified sEng antigen; sEng
T4 sequence: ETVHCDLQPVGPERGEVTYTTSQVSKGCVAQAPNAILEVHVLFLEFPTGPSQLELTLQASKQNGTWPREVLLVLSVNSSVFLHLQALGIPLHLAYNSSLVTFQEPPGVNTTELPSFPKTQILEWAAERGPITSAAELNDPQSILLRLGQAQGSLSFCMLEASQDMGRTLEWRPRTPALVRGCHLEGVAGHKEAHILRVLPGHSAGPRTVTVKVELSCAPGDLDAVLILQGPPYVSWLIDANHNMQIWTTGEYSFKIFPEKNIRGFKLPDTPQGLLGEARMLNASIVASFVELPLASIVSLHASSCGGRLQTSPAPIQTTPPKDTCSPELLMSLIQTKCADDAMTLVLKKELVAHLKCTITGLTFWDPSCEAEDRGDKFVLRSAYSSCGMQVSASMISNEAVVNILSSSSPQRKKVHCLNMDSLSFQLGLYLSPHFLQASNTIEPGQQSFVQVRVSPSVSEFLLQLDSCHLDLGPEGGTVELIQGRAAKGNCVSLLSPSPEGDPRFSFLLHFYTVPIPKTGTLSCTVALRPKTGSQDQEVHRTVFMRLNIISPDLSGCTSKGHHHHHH
Nature of the assay: BLI (Octet QK), purified MAb on Protein-G biosensor, sEng 1-586 6xHis 50 nM in solution. How it is done: Materials: Kinetics buffer—PBS solution containing 0.1% BSA and 0.05% Tween-20. Anti-sEng antibodies were purified from ascites of mice injected with hybridoma cells by Protein-G chromatography and buffer exchanged into PBS. For each run, 22 ug/ml (or 150 nM) of each antibody was loaded onto the Protein-G biosensor tip. Purified sEng antigen recombinant human (rh) Endoglin ectodomain (residues 1-586) containing C-terminal 6×His tag was purified from HEK-293 cells by metal affinity chromatography followed by size-exclusion chromatography pre-equilibrated in PBS. For each run, 3 ug/ml (or 50 nM) of sEng was used for association to MAbs bound to Protein-G biosensor tips. Protein-G Biosensor tips were purchased from the instrument supplier.

The target of assay [4] is T5, recombinant human (rh) Endoglin ectodomain (residues 1-586) fused with human IgG1 Fc (human, UniProt P17813 26-586).
T5 construct: range 1-586; The stated range 1-586 includes the signal peptide, which would be absent from the secreted protein; also called sEng-Fc; sEng/Fc fusion protein; not shown: human IgG1 Fc
T5 sequence (looked up): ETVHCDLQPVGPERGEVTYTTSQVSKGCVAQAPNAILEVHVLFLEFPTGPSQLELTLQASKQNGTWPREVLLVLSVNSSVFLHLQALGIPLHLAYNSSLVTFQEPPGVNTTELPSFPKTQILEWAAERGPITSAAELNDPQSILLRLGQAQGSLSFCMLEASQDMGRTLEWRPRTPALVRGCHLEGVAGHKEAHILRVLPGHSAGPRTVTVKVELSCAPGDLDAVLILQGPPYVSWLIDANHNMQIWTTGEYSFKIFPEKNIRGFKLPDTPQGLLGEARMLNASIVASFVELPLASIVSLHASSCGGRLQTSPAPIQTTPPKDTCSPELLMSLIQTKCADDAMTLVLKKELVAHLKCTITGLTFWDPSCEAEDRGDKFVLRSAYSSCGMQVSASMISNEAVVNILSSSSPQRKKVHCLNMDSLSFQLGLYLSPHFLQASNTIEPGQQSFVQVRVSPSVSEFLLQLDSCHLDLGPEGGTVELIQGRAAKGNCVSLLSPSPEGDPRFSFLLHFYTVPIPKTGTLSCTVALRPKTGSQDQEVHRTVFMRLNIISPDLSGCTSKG
Briefly: BLI (Octet QK), MAb from hybridoma supernatant captured on anti-mouse IgG biosensor, sEng-Fc 170 nM in solution. Here is the method:
Materials: Kinetics buffer—PBS solution containing 0.1% BSA and 0.05% Tween-20 was used as the kinetics buffer. Test samples—culture supernatants from top 21 hybridoma clones with the strongest signals for binding to the sEng-Fc antigen as determined by ELISA. sEng antigen—recombinant human (rh) Endoglin ectodomain (residues 1-586) fused with human IgG1 Fc, diluted to 170 nM (30 ug/ml) with kinetics buffer. Biosensors—streptavidin biosensors, preloaded with biotinylated sheep anti-mouse IgG.
Binding affinities were determined using the ForteBio label-free Octet QK BLI system using the following protocol: [0237] i. Condition: Immerse biosensor tips in 200 uL of kinetics buffer for >10 min. [0238] ii. Baseline 1: Immerse biosensors in fresh culture medium for 1 min. [0239] iii. Load: Immerse biosensors in culture supernatant samples containing MAbs for 3 min. [0240] iv. Baseline: Immerse biosensors in kinetics buffer for 1 min. [0241] v. Binding/Association: Incubate biosensors with sEng-Fc Antigen for 5 min. [0242] vi. Dissociation: Incubate biosensors in kinetics buffer for 5 min.
Response signals (nm shifts) were used to calculate Kd values for the different antibodies.
In general terms: BLI is a label-free optical method that tracks binding on a fibre tip over time.

T1 sequence (P17948 other isoform, or with tags, fused parts or gaps limits assumed): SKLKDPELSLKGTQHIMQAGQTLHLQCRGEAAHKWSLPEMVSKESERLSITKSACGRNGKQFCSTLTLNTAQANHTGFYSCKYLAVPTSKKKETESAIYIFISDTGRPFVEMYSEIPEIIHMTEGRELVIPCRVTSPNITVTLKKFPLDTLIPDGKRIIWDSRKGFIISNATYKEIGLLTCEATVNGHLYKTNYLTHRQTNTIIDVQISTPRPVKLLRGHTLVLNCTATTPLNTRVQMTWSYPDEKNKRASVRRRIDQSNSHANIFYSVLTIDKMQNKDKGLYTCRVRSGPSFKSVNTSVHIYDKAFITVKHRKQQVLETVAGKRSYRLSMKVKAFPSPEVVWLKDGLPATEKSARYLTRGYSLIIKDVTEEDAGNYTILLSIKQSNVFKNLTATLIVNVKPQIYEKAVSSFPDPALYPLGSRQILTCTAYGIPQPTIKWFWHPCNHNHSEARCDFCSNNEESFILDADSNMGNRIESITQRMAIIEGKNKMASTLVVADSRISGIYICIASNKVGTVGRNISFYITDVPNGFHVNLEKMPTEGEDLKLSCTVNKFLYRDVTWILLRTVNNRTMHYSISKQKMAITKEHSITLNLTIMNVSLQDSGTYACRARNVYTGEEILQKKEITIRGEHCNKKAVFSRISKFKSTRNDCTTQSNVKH

B1: chimeric anti-sEng antibody cENG10 (antibody, human IgG1, kappa, N297Q, V domains shown)
VH: EVQLEQSGPEVVKPGTSVKISCKTSGYTITEHTLHWIKQNQGKSLEWIGGINFDNGGTTYRQKFKDKATLTVDKSSSTAFMELRSLTSDDSAVYFCARRAYYYGSAFDYWGQGTTLTVSS
VL: ENVLTQSPAIMSASLGEKVTMTCRASSSVNYVYWYQQKSDASPKLWIYYTSNLAPGVPARFSGSGSGNSYSLTISSMEGEDAATYYCQQFISFPYTFGGGTKLEIKR
notes: Murine MAb 210 variable regions on human IgG1 / kappa constant regions; also called αEng; cENG10 (CHO-derived)
As for B1, the binding result in assay [1] is recorded as “no binding”; with purified human Bmp9, “no binding (tested: 20 nM)”. For the same molecule, the concentration giving a half-maximal response (EC50 (read off the curve)) in assay [2] is approximately 3 nM.

B2: MAb 210 (antibody, V domains shown)
VH: EVQLEQSGPEVVKPGTSVKISCKTSGYTITEHTLHWIKQNQGKSLEWIGGINFDNGGTTYRQKFKDKATLTVDKSSSTAFMELRSLTSDDSAVYFCARRAYYYGSAFDYWGQGTTLTVSS
VL: ENVLTQSPAIMSASLGEKVTMTCRASSSVNYVYWYQQKSDASPKLWIYYTSNLAPGVPARFSGSGSGNSYSLTISSMEGEDAATYYCQQFISFPYTFGGGTKLEIK
notes: Murine monoclonal antibody from hybridoma; also called lead antibody
Turning to B2, the Kd amounted to 2.2 nM in assay [3] and 0.61 nM in assay [4].

Source of the values: patent US20230030032A1 (AGGAMIN, published 2023).
